The supplement of paper PMC9170038

Tested on: MS2 coat protein
Assay: apparent KD of MS2 coat protein; designed switch direction (-1 OFF switch, 1 ON switch): -1; higher = weaker reporter binding
In short: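 An oligonucleotide input, 200 uM small-molecule ligand, or no input was present during titration of SNAP-549-labelled MS2 coat protein, which was doubled from 0.7 or 1.5 nM to 3 µM. Designed RNA switches had been transcribed on Illumina chips by stalled E. coli RNA polymerase. Apparent KD per design is the median over clusters of curves fitted to normalised cluster fluorescence.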

[1] = Eterna round: R95, input ligand: FMN 200 uM
[2] = Eterna round: R95, input ligand: microRNA oligo, concentration not stated
[3] = Eterna round: R95, input ligand: none
[4] = input ligand: microRNA oligo, concentration not stated

Sequence	apparent KD of MS2 coat protein [1]	apparent KD of MS2 coat protein [2]	apparent KD of MS2 coat protein [3]	apparent KD of MS2 coat protein (input ligand: FMN 200 uM)	apparent KD of MS2 coat protein [4]	apparent KD of MS2 coat protein (input ligand: none)
GGUCAAGAACAGCGCCGCGCUGCCCUUGACCGCUCAUUUACAUGAGGAUCACCCAUGUUUUUUGCUUGUCUUGUUUC [Tiordiri] (puzzle: Sensor v3, turn-off variant 2)	20.6 nM	101 nM	23.7 nM			
GGUCAAGGACAGCUCCGCGCUGCCCUUGACCGCUCAUUUACAUGAGGAUCACCCAUGUUUUUUGCUUGUCUUGUUUC [Atedorgela] (puzzle: Sensor v3, turn-off variant 2)	20 nM	110 nM	24.2 nM			
GGUCAGACGGUAGGAUAUUCAUAUCGAGUGACCCUUUCAUAACAUGAGGAUCACCCAUGUCGGUGGGAGAAGGGCCGUACGGCG [salish99_ExNG02_R04_008] (Eterna round: R96, puzzle: Exclusion NG 2)				41 nM	31.9 nM	33.6 nM
GGUCAGAUGGUAGGAUAUCCAUAUCGAGUGACCCUUUCAUAACAUGAGGAUCACCCAUGUCGGUGGGAGAAGGGCCGUACGGCG [salish99_ExNG02_R04_010] (Eterna round: R96, puzzle: Exclusion NG 2)				43.9 nM	32.8 nM	41.7 nM
GGUCAGAUGGUAGGAUAUUCAUAUCGAGUGACCCUUUCAUAACAUGAGGAUCACCCAUGUCGGUGGGAGAAGGGCCGUACGGCG [salish99_ExNG02_R04_014] (Eterna round: R96, puzzle: Exclusion NG 2)				26.9 nM	29.3 nM	50.7 nM
GGUCAUCAAGUCAGGAUAUCGUCAAAUCAAUCAGGCGAGAAGGGACAUGAGGAUCACCCAUGUCGACUCAUCAC [Ex4 #4] (Eterna round: R97, puzzle: Brourd's mod of Exclusion 4)				117 nM		31.2 nM
GGUCCGAGUGUGAGGAUAUGCUGGUCCUUGGAUCAGCAGAAGGCACAUGAGGAUCACCCAUGUGAAGACGGACC [Mat - Exclusion 4 - Eli Mod - D30] (Eterna round: R97, puzzle: Brourd's mod of Exclusion 4)				537 nM		91.5 nM
GGUCGUAUGAGUAGUCCUCAUUGAAGAGAUUGGUAAGAUACAUGAGGAUCACCCAUGUUUGAACAAGCUUUUGCUCU [JR_Sv3TOV2_Sub008] (Eterna round: R96, puzzle: Sensor v3, turn-off variant 2)				159 nM	54.3 nM	118 nM
GGUCGUAUGAGUAGUCCUCAUUGAAGAGAUUGGUAAGAUACAUGAGGAUCACCCAUGUUUGAACAAGCUUUUGCUCU [JR_Sv3TOV2_Sub008] (puzzle: Sensor v3, turn-off variant 2)	96 nM	41.9 nM	120 nM			
GGUGCGUAUGUGAGGAUAUGCUGGUCCUUGGAUCGGCAGAAGGUACAUGAGGAUCACCCAUGUGGUGUCGUUCC [salish99_Bmod_ex4_102] (puzzle: Brourd's mod of Exclusion 4)		87 nM				
GGUGCGUUUGUGAGGAUAUGCUGGUCCUUGGAUCAGCAGAAGGCACAUGAGGAUCACCCAUGUGGUGUCCCUCC [salish99_Bmod_Ex4_040] (puzzle: Brourd's mod of Exclusion 4)		154 nM				
GGUGCGUUUGUGAGGAUAUGCUGGUCCUUGGAUCAGCAGAAGGCACAUGAGGAUCACCCAUGUGGUGUCGGUCC [salish99_Bmod_Ex4_038] (puzzle: Brourd's mod of Exclusion 4)		252 nM				
GGUGCGUUUGUGAGGAUAUGCUGGUCCUUGGGUCAGCAGAAGGCACAUGAGGAUCACCCAUGUGGUGUCGUACC [salish99_Bmod_Ex4_032] (puzzle: Brourd's mod of Exclusion 4)		178 nM				
GGUGCUGGCGCGUCGGUGUUGGUGCAAUAAGCUUGUGAGACAUGAGGAUCACCCAUGUCCUCGUGGGCUCGUCUUGU [salish99_TOv2_r2_091] (puzzle: Sensor v3, turn-off variant 2)	91.2 nM	79.3 nM	93.7 nM			
GGUGGACAUGAGGAUCACCCAUGUGAGGAUAUCGGCUAUCUACUCGCUGACGGCUGCUCGAGAAGGCGCAUUGU [Exclusion 1 V90] (puzzle: Exclusion 1)		44.8 nM				
GGUGGACAUGAGGAUCACCCAUGUGAGGAUAUCGGCUGGUACGUGGUGGCUGGCAUCUCGAGAAGGCACAUAGU [Exclusion 1 V66] (puzzle: Exclusion 1)		83.6 nM				
GGUGGACAUGAGGAUCACCCAUGUGAGGAUAUCGGCUGGUACGUGUUGGCUGGCAUCUCGAGAAGGCACAUCGU [Exclusion 1 V64] (Eterna round: R96, puzzle: Exclusion 1)				181 nM	46 nM	49 nM
GGUGGACAUGAGGAUCACCCAUGUGAGGAUAUCGGCUGGUACGUGUUGGCUGGCAUCUCGAGAAGGCACAUCGU [Exclusion 1 V64] (puzzle: Exclusion 1)		44.8 nM				
GGUGUUGAAGGAUAUACAUGAGGAUCACCCAUGUACCGCUCGGACAAGAUAUCAUUCAGUAGAAGGUCGGACCG [Eternabot (L2) Solution 11] (Eterna round: R97, puzzle: Exclusion 3)				66.5 nM		150 nM
GGUUGACAUGAGGAUCACCCAUGUGAGGAUAUGCGAGAGAAAAAAGUGAGGAAGAAAUGCAGAAGGCGCUGUCG [salish99-ex1_r3_009] (puzzle: Exclusion 1)	127 nM	81.5 nM	433 nM			
GGUUGGCGAGGAUAUACAUGAGGAUCACCCAUGUGAGAGAAAAAAGUGAGGAAGAACAGUAGAAGGCGCUGACG [salish99_ex3_r3_036] (puzzle: Exclusion 3)	162 nM	74.2 nM	106 nM			
GGUUGGCGAGGAUAUACAUGAGGAUCACCCAUGUGAGAGAAAAAAGUGAGGCAGAAAAGUAGAAGGCGCUGACG [salish99_ex3_r3_031] (puzzle: Exclusion 3)	137 nM	29.8 nM	96.8 nM			
GGUUGGCGAGGAUAUACAUGAGGAUCACCCAUGUGAGAGAAACAAGUGAGGAAGAAAAGUAGAAGGCGCUGACG [salish99_ex3_r3_023] (puzzle: Exclusion 3)	112 nM	88.1 nM	37.1 nM			
GGUUGGCGAGGAUAUACAUGAGGAUCACCCAUGUGAGAGAAUAAAGUGAGAAAGAAAAGUAGAAGGCGCUGACG [Mat - Exclusion 3 - Mod of Salish D49] (puzzle: Exclusion 3)	728 nM	56.9 nM	43.3 nM			
GGUUGGCGAGGAUAUACAUGAGGAUCACCCAUGUGAGAGAAUAAAGUGAGGAAGAAAAGUAGAAGGCGCUGACA [Mat - Exclusion 3 - Mod of Salish D8] (puzzle: Exclusion 3)	154 nM	42.1 nM	40.7 nM			
GGUUGUUGUUUCCGUUCUUACAUGAGGAUCACCCAUGUUUCUUGUCGUGCUCGCGUUGCUCGUCUGGCUGCCUGUUG [salish99_TOv1_r3_070] (puzzle: Sensor v3, turn-off variant 1)	41.2 nM	37.4 nM	54.4 nM			
GGUUGUUGUUUCCGUUCUUACAUGAGGAUCACCCAUGUUUCUUGUCGUGCUCGCGUUGCUCGUCUGUCUGUCUGUUG [salish99_TOv1_r3_072] (puzzle: Sensor v3, turn-off variant 1)	55.7 nM	36.2 nM	63 nM			
GGUUGUUUUUUCCGUUCUUACAUGAGGAUCACCCAUGUUUCUUGUCGUGCUCGCGUUGCUCGUCUGUCUGUCUGUUG [salish99_TOv1_r3_073] (puzzle: Sensor v3, turn-off variant 1)	48.5 nM	34.3 nM	56 nM			
GGUUUAGUAGAGGAUAUGUCACUGUCGCAGGAGACAGAAGGCUGCACAUGAGGAUCACCCAUGUCGGUAAUGAG [Eternabot (L1) Solution 89] (Eterna round: R97, puzzle: Exclusion 6)				21.8 nM		16.3 nM
GUAAACGAAGAGGAUAUUUGAUAUCAUAGCUUCAAAGAAGGCUUCACAUGAGGAUCACCCAUGUGAUCUUCAAA [Mat - Exclusion 6 - JL Mod - D22] (Eterna round: R97, puzzle: Exclusion 6)				142 nM		20.7 nM
